In the supplement of paper PMC9112550, “Optimization of the antimicrobial peptide Bac7 by deep mutational scanning” (BMC Biology, 2022):

Test system: Escherichia coli TOP10
Assay: shrunken log2 fold change of peptide-encoding DNA abundance (4.5 h post-induction vs induction); higher = less antimicrobial activity (less host growth inhibition)
Conditions: time post-induction: 4.5 h; library: site-saturation at positions 5, 18, 19, 20
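Also: peptides expressed intracellularly from a pBAD plasmid library in pooled LB shake-flask culture, induced with 0.3% L-arabinose, DNA abundance read by NGS, three biological replicates, DESeq2 with apeglm shrinkage.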

Sequence	shrunken log2 fold change
RRIRLRPPRLPRPRPRPDCEPRP	0.0566
RRIRPRPPRLPRPRPRPNPWPRP	0.277
RRIRVRPPRLPRPRPRPDQHPRP	-0.0679
RRIRVRPPRLPRPRPRPRCWPRP	0.294
RRIRCRPPRLPRPRPRPCYKPRP	0.0187
RRIRNRPPRLPRPRPRPNEPPRP	-0.000856
RRIRQRPPRLPRPRPRPISIPRP	-0.93
RRIRKRPPRLPRPRPRPCGRPRP	0.0548
RRIRFRPPRLPRPRPRPMWDPRP	-0.469
RRIRWRPPRLPRPRPRPCTRPRP	-0.161
RRIRARPPRLPRPRPRPYHFPRP	-0.186
RRIRNRPPRLPRPRPRPVHNPRP	-0.289
RRIRSRPPRLPRPRPRPRCLPRP	0.0297
RRIRNRPPRLPRPRPRPRPWPRP	0.116
RRIRKRPPRLPRPRPRPDVQPRP	-0.00299
RRIRARPPRLPRPRPRPPSFPRP	0.415
RRIRNRPPRLPRPRPRPYWLPRP	-0.55
RRIRNRPPRLPRPRPRPEDNPRP	0.0315
RRIRHRPPRLPRPRPRPTHRPRP	0.0822
RRIRERPPRLPRPRPRPRCKPRP	-0.0657
RRIRIRPPRLPRPRPRPAHHPRP	-0.176
RRIRMRPPRLPRPRPRPKHQPRP	0.634
RRIRGRPPRLPRPRPRPWDWPRP	1.2
RRIRSRPPRLPRPRPRPFKAPRP	-0.0415
RRIRDRPPRLPRPRPRPSNDPRP	0.0978

Sequence	shrunken log2 fold change
RRIRQRPPRLPRPRPRPYDNPRP	-0.0495
RRIRGRPPRLPRPRPRPGYWPRP	1.88
RRIRCRPPRLPRPRPRPSSMPRP	-0.859
RRIRRRPPRLPRPRPRPHLIPRP	-0.293
RRIRERPPRLPRPRPRPWVAPRP	-0.00272
RRIRIRPPRLPRPRPRPYWIPRP	-0.568
RRIRQRPPRLPRPRPRPFPMPRP	0.155
RRIRKRPPRLPRPRPRPTTPPRP	0.427
RRIRSRPPRLPRPRPRPPSSPRP	-0.0711
RRIRARPPRLPRPRPRPFPQPRP	0.512
RRIRTRPPRLPRPRPRPHFFPRP	-0.161
RRIRDRPPRLPRPRPRPDHQPRP	-0.0643
RRIRLRPPRLPRPRPRPDPCPRP	-0.0403
RRIRIRPPRLPRPRPRPLIIPRP	-0.652
RRIRWRPPRLPRPRPRPHFCPRP	-0.0299
RRIRLRPPRLPRPRPRPRCTPRP	0.0989
RRIRKRPPRLPRPRPRPDNMPRP	0.107
RRIRHRPPRLPRPRPRPHIWPRP	-0.835
RRIRCRPPRLPRPRPRPMHIPRP	-0.241
RRIRIRPPRLPRPRPRPVMDPRP	-0.184
RRIRDRPPRLPRPRPRPFNRPRP	0.00902
RRIRRRPPRLPRPRPRPVESPRP	0.126
RRIRPRPPRLPRPRPRPCHMPRP	-0.0442
RRIRTRPPRLPRPRPRPTMDPRP	-0.436
RRIRWRPPRLPRPRPRPWISPRP	-0.124

Sequence	shrunken log2 fold change
RRIRARPPRLPRPRPRPWLCPRP	0.116
RRIRMRPPRLPRPRPRPHMPPRP	-0.206
RRIRYRPPRLPRPRPRPFASPRP	-0.000244
RRIRFRPPRLPRPRPRPVTQPRP	-0.244
RRIRMRPPRLPRPRPRPSGMPRP	0.03
RRIRQRPPRLPRPRPRPAFHPRP	-0.0711
RRIRIRPPRLPRPRPRPGVKPRP	-0.279
RRIRYRPPRLPRPRPRPLKLPRP	-0.772
RRIRIRPPRLPRPRPRPTDKPRP	-0.406
RRIRMRPPRLPRPRPRPCSEPRP	0.514
RRIRDRPPRLPRPRPRPSHVPRP	-0.401
RRIRKRPPRLPRPRPRPFLEPRP	0.194
RRIRVRPPRLPRPRPRPDGWPRP	0.223
RRIRHRPPRLPRPRPRPVTCPRP	0.0254
RRIRTRPPRLPRPRPRPCWEPRP	0.203
RRIRVRPPRLPRPRPRPAQVPRP	0.427
RRIRCRPPRLPRPRPRPDLEPRP	-0.26
RRIRVRPPRLPRPRPRPFHNPRP	-0.0884
RRIRQRPPRLPRPRPRPSWCPRP	-0.141
RRIRSRPPRLPRPRPRPWRTPRP	0.311
RRIRTRPPRLPRPRPRPEREPRP	-0.00458
RRIRCRPPRLPRPRPRPDNKPRP	-0.795
RRIRCRPPRLPRPRPRPKMHPRP	-0.121
RRIRWRPPRLPRPRPRPYALPRP	0.0509
RRIRVRPPRLPRPRPRPSIAPRP	-0.0218

Sequence	shrunken log2 fold change
RRIRHRPPRLPRPRPRPFDSPRP	-0.00149
RRIRRRPPRLPRPRPRPGNDPRP	-0.0382
RRIRRRPPRLPRPRPRPRVAPRP	0.875
RRIRPRPPRLPRPRPRPYAWPRP	-0.152
RRIRTRPPRLPRPRPRPWRKPRP	-0.262
RRIRKRPPRLPRPRPRPKYPPRP	0.0162
RRIRARPPRLPRPRPRPLQSPRP	0.625
RRIRWRPPRLPRPRPRPFTTPRP	-0.0833
RRIRKRPPRLPRPRPRPYDAPRP	-0.252
RRIRHRPPRLPRPRPRPETGPRP	-0.0213
RRIRWRPPRLPRPRPRPKCMPRP	0.531
RRIRGRPPRLPRPRPRPCTGPRP	0.11
RRIRSRPPRLPRPRPRPMHGPRP	0.102
RRIRRRPPRLPRPRPRPVLPPRP	0.584
RRIRKRPPRLPRPRPRPIWVPRP	0.00396
RRIRSRPPRLPRPRPRPKWRPRP	0.29
RRIRVRPPRLPRPRPRPITMPRP	-0.432
RRIRSRPPRLPRPRPRPEVQPRP	-0.0242
RRIRSRPPRLPRPRPRPYTRPRP	-0.304
RRIRYRPPRLPRPRPRPPDDPRP	0.141
RRIRARPPRLPRPRPRPFFHPRP	-0.0215
RRIRVRPPRLPRPRPRPWLKPRP	0.151
RRIRCRPPRLPRPRPRPVIHPRP	-0.567
RRIRARPPRLPRPRPRPKPFPRP	0.0753
RRIRHRPPRLPRPRPRPGLHPRP	-0.308

Sequence	shrunken log2 fold change
RRIRMRPPRLPRPRPRPDCHPRP	1.49
RRIRYRPPRLPRPRPRPWGGPRP	0.011
RRIRMRPPRLPRPRPRPIASPRP	0.0465
RRIRGRPPRLPRPRPRPLIAPRP	1.27
RRIRRRPPRLPRPRPRPFYSPRP	-0.307
RRIRFRPPRLPRPRPRPGLPPRP	0.255
RRIRLRPPRLPRPRPRPSDQPRP	-0.18
RRIRKRPPRLPRPRPRPMCQPRP	-0.0286
RRIRLRPPRLPRPRPRPMGDPRP	0.0227
RRIRDRPPRLPRPRPRPRAYPRP	-0.212
RRIRKRPPRLPRPRPRPGTTPRP	0.157
RRIRCRPPRLPRPRPRPTPYPRP	0.00933
RRIRERPPRLPRPRPRPKTPPRP	0.0131
RRIRDRPPRLPRPRPRPSWRPRP	0.0848
RRIRWRPPRLPRPRPRPAPAPRP	1.38
RRIRLRPPRLPRPRPRPNSIPRP	-0.0133
RRIRVRPPRLPRPRPRPPEEPRP	0.0908
RRIRHRPPRLPRPRPRPALTPRP	0.0729
RRIRARPPRLPRPRPRPGSHPRP	0.101
RRIRDRPPRLPRPRPRPDLRPRP	-0.0435
RRIRCRPPRLPRPRPRPLCQPRP	-0.949
RRIRFRPPRLPRPRPRPKTRPRP	0.277
RRIRQRPPRLPRPRPRPCIMPRP	-0.748
RRIRCRPPRLPRPRPRPFHVPRP	-0.893
RRIRSRPPRLPRPRPRPNRQPRP	-0.403
